Laboratory results: publication PMC6770759

Target: porcine pancreatic elastase (porcine) (UniProt P00772)
Chain of UniProt P00772 (P00772 27-266): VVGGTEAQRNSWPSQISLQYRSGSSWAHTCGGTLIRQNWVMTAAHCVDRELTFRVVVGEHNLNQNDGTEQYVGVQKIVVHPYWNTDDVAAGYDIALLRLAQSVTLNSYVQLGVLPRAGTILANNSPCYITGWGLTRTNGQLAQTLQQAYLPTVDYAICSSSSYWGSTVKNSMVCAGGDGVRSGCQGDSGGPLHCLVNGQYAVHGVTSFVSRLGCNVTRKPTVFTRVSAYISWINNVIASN

elastase inhibition % (hydrolysis of N-succinyl-tri-l-alanine-4-nitroanilide read at 410 nm), AAT from 7.5 to 120 µg/mL: 97%
Substance: Alpha-1-antitrypsin (standard AAT, purified from human plasma) (from UniProt P01009 25-418) (natural protein)
